In data set [1] the test system is T1, Cc1ncc(CO)c(C=O)c1O.
T1 construct: full length, recombinant from E. coli; wild type untagged (as previously described); K229Q His-tagged (C-terminus; pET28a NdeI/EcoRI)
As to the kind of experiment: purified protein. Type of data set: biochemical, Escherichia coli. Particulars: MgATP co-substrate, 20 mM K-HEPES pH 7.5, 0.2 mM MgCl2, 37°C.

The subject of data set [2] is T2, Nc1ncnc2c1ncn2[C@@H]1O[C@H](COP(=O)(O)OP(=O)(O)OP(=O)(O)O)[C@@H](O)[C@H]1O.
T2 construct: full length, recombinant from E. coli; wild type untagged (as previously described); K229Q His-tagged (C-terminus; pET28a NdeI/EcoRI)
Put plainly: purified protein. Type of data set: biochemical, Escherichia coli. Particulars: PL co-substrate, 20 mM K-HEPES pH 7.5, 0.2 mM MgCl2, 37°C.

What is called Km is the concentration of substrate that gives half-maximal velocity. As usually defined, the kcat is the maximal rate divided by the concentration of active sites. Take “ePL kinase (E. coli pyridoxal kinase 1, PL kinase1) (Escherichia coli K-12; K229Q)”: in data set [1] (His-tagged), the Km is 384 µM and the kcat was 0.433 s⁻¹. For the same substance, in data set [2] (His-tagged), the Km amounted to 122 µM and the kcat amounted to 0.433 s⁻¹.
Turning to “ePL kinase (E. coli pyridoxal kinase 1, PL kinase1) (Escherichia coli K-12)”, in data set [1], the Km came to 60 µM and the kcat is 4 s⁻¹. For the same substance, in data set [2], the Km stood at 460 µM and the kcat was found to be 4 s⁻¹.

The values above are taken from PMC3404986, “Pyridoxal 5′-Phosphate Is a Slow Tight Binding Inhibitor of E. coli Pyridoxal Kinase” (PLoS ONE, 2012).
